Patent US20210155676A1

B1: PGT121.42 hIgG1/hLambda (antibody)
heavy: QMQLQESGPGLVKPSETLSLTCSVSGASISDSYWSWIRRSPGKGLEWIGYVHKSGDTNYNPSLKSRVHLSLDTSKNQVSLSLSSVTAADSGKYYCARTLHGRRIYGIVAFNEWFTYFYMDVWGKGTQVTVSSASTKGPSVFPLAPSSKSTSGGTAALGCLVKDYFPEPVTVSWNSGALTSGVHTFPAVLQSSGLYSLSSVVTVPSSSLGTQTYICNVNHKPSNTKVDKKVEPKSCDKTHTCPPCPAPELLAGPDVFLFPPKPKDTLMISRTPEVTCVVVDVSHEDPEVKFNWYVDGVEVHNAKTKPREEQYNSTYRVVSVLTVLHQDWLNGKEYKCKVSNKALPLPEEKTISKAKGQPREPQVYTLPPSREEMTKNQVSLTCLVKGFYPSDIAVEWESNGQPENNYKTTPPVLDSDGSFFLYSKLTVDKSRWQQGNVFSCSVLHEALHSHYTQKSLSLSPGK
light: not shown
B2: PGT121.64 hIgG1/hLambda (antibody)
heavy: QLQLQESGPGLVKPSETLSLTCSVSGASISDAYWSWIRRSPGKGLEWIGYVHKSGDTNYNPSLKSRVHLSLDTSKNQVSLSLTGVTAADSGKYYCARALHGRRIYGIVAFNEWFTYFYMDVWGTGTQVTVSSASTKGPSVFPLAPSSKSTSGGTAALGCLVKDYFPEPVTVSWNSGALTSGVHTFPAVLQSSGLYSLSSVVTVPSSSLGTQTYICNVNHKPSNTKVDKKVEPKSCDKTHTCPPCPAPELLAGPDVFLFPPKPKDTLMISRTPEVTCVVVDVSHEDPEVKFNWYVDGVEVHNAKTKPREEQYNSTYRVVSVLTVLHQDWLNGKEYKCKVSNKALPLPEEKTISKAKGQPREPQVYTLPPSREEMTKNQVSLTCLVKGFYPSDIAVEWESNGQPENNYKTTPPVLDSDGSFFLYSKLTVDKSRWQQGNVFSCSVLHEALHSHYTQKSLSLSPGK
light: not shown
B3: PGT121.56 hIgG1/hLambda (antibody)
heavy: QMQLQESGPGLVKPSETLSLTCSVSGASISDSYWSWIRRSPGKGLEWIGYVHKSGDTNYSPSLKSRVNLSLDTSKNQVSLSLVAATAADSGKYYCARTLHGRRIYGIVAFNEWFTYFYMDVWGNGTQVTVSSASTKGPSVFPLAPSSKSTSGGTAALGCLVKDYFPEPVTVSWNSGALTSGVHTFPAVLQSSGLYSLSSVVTVPSSSLGTQTYICNVNHKPSNTKVDKKVEPKSCDKTHTCPPCPAPELLAGPDVFLFPPKPKDTLMISRTPEVTCVVVDVSHEDPEVKFNWYVDGVEVHNAKTKPREEQYNSTYRVVSVLTVLHQDWLNGKEYKCKVSNKALPLPEEKTISKAKGQPREPQVYTLPPSREEMTKNQVSLTCLVKGFYPSDIAVEWESNGQPENNYKTTPPVLDSDGSFFLYSKLTVDKSRWQQGNVFSCSVLHEALHSHYTQKSLSLSPGK
light: not shown
B4: PGT121.61 hIgG1/hLambda (antibody)
heavy: QMQLQESGPGLVKPSETLSLTCSVSGASISDSYWSWIRRSPGKGLEWIGYVHKSGDTNYNPSLKSRVHLSLDTSKNQVSLSLTGVTAADSGKYYCARTLHGRRIYGIVAFNEWFTYFYMDVWGTGTQVTVSSASTKGPSVFPLAPSSKSTSGGTAALGCLVKDYFPEPVTVSWNSGALTSGVHTFPAVLQSSGLYSLSSVVTVPSSSLGTQTYICNVNHKPSNTKVDKKVEPKSCDKTHTCPPCPAPELLAGPDVFLFPPKPKDTLMISRTPEVTCVVVDVSHEDPEVKFNWYVDGVEVHNAKTKPREEQYNSTYRVVSVLTVLHQDWLNGKEYKCKVSNKALPLPEEKTISKAKGQPREPQVYTLPPSREEMTKNQVSLTCLVKGFYPSDIAVEWESNGQPENNYKTTPPVLDSDGSFFLYSKLTVDKSRWQQGNVFSCSVLHEALHSHYTQKSLSLSPGK
light: SDISVAPGETARISCGEKSLGSRAVQWYQHRAGQAPSLIIYNNQDRPSGIPERFSGSPDSRPGTTATLTITSVEAGDEADYYCHIWDSRVPTKWVFGGGTKLTVLGQPKAAPSVTLFPPSSEELQANKATLVCLISDFYPGAVTVAWKADSSPVKAGVETTTPSKQSNNKYAASSYLSLTPEQWKSHRSYSCQVTHEGSTVEKTVAPTECS
B5: PGT121.65 hIgG1/hLambda (antibody)
heavy: QLQLQESGPGLVKPSETLSLTCSVSGASISDAYWSWIRRSPGKGLEWIGYVHKSGDTNYNPSLKSRVHLSLDTSKNQVSLSLTGVTAADSGKYYCARALHGRRIYGIVAFNEWFTYFYMDVWGTGTQVTVSSASTKGPSVFPLAPSSKSTSGGTAALGCLVKDYFPEPVTVSWNSGALTSGVHTFPAVLQSSGLYSLSSVVTVPSSSLGTQTYICNVNHKPSNTKVDKKVEPKSCDKTHTCPPCPAPELLAGPDVFLFPPKPKDTLMISRTPEVTCVVVDVSHEDPEVKFNWYVDGVEVHNAKTKPREEQYNSTYRVVSVLTVLHQDWLNGKEYKCKVSNKALPLPEEKTISKAKGQPREPQVYTLPPSREEMTKNQVSLTCLVKGFYPSDIAVEWESNGQPENNYKTTPPVLDSDGSFFLYSKLTVDKSRWQQGNVFSCSVLHEALHSHYTQKSLSLSPGK
light: SDISVAPGETARISCGEKSLGSRAVQWYQHRAGQAPSLIIYNNQDRPSGIPERFSGSPDSRPGTTATLTITSVEAGDEADYYCHIWDSRVPTKWVFGGGTKLTVLGQPKAAPSVTLFPPSSEELQANKATLVCLISDFYPGAVTVAWKADSSPVKAGVETTTPSKQSNNKYAASSYLSLTPEQWKSHRSYSCQVTHEGSTVEKTVAPTECS
B6: PGT121.60 hIgG1/hLambda (antibody)
heavy: QMQLQESGPGLVKPSETLSLTCSVSGASISDSYWSWIRRSPGKGLEWIGYVHKSGDTNYNPSLKSRVHLSLDTSKNQVSLSLTGVTAADSGKYYCARTLHGRRIYGIVAFNEWFTYFYMDVWGTGTQVTVSSASTKGPSVFPLAPSSKSTSGGTAALGCLVKDYFPEPVTVSWNSGALTSGVHTFPAVLQSSGLYSLSSVVTVPSSSLGTQTYICNVNHKPSNTKVDKKVEPKSCDKTHTCPPCPAPELLAGPDVFLFPPKPKDTLMISRTPEVTCVVVDVSHEDPEVKFNWYVDGVEVHNAKTKPREEQYNSTYRVVSVLTVLHQDWLNGKEYKCKVSNKALPLPEEKTISKAKGQPREPQVYTLPPSREEMTKNQVSLTCLVKGFYPSDIAVEWESNGQPENNYKTTPPVLDSDGSFFLYSKLTVDKSRWQQGNVFSCSVLHEALHSHYTQKSLSLSPGK
light: not shown

Molecular target: Env of 92 subtype B viruses
Assay: cell-based or functional assay

Binder	PGT121 IC50/Variant IC50	neutralization Coverage (%)	neutralization Median IC95
B1	1.2 fold	63%	0.277 µg/mL
B2	2.6 fold	59.8%	0.129 µg/mL
B3	–	62%	0.265 µg/mL
B4	1 fold	58.7%	0.327 µg/mL
B5	2 fold	59.8%	0.165 µg/mL
B6	1.9 fold	59.8%	0.177 µg/mL
